Results as given in patent publication US20070111265A1, “Ligands for mineralocorticoid receptor (MR) and methods for screening for or designing MR ligands” (Van Andel Research Institute, priority 2005, published 2007).
pIC50: −log10 of the molar value. Entries after “also recorded” stand apart in the source; their conditions may differ. Blank lines part the entries; values can stand above or below the compound they belong to. No end group written: not given here.

What was measured:
[1] = tested on: MR S810 mutated to leucine or methionine; details: Geller et al., 2000; cited from earlier work
[2] = molecular target: T1, purified MR LBD/corticosterone complex (Homo sapiens, UniProt P08235, C808S); assay: AlphaScreen binding of biotinylated coactivator/corepressor peptides (FIG. 1B); details: corticosterone-bound MR LBD
T1 construct: made in house; host or cells: E. coli BL21DE3 (pET24a)
T1 sequence (P08235 727-984 C808S): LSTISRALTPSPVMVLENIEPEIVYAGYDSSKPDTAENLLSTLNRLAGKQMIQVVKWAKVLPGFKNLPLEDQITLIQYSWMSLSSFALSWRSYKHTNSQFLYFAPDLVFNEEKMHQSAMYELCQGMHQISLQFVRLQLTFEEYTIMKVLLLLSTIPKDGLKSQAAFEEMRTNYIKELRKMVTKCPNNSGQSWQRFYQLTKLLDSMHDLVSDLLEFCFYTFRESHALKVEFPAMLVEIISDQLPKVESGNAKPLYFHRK
Description: (B) Binding of various peptides containing coactivator or corepressor motifs to the purified MR LBD/corticosterone complex as measured by AlphaScreen assays. The background reading with the MR LBD alone is less than 200.
(§1) The binding of various peptide motifs to MR was determined by AlphaScreen assays using a hexahistidine detection kit from Perkin-Elmer. MR proteins were prepared as 6×His-GST fusion proteins for the assays.
The biotinylated peptides that were used in FIG. 1B are listed below in Table 1: […]

MR = molecular target: T2, MR (Homo sapiens, UniProt P08235); assay: IC50 (µM)
T2 construct: receptor expression vector (pRS vector) encoding full-length GR and MR respectively (ATCC); host or cells: Cos-7
T2 sequence (P08235 whole entry, looked up): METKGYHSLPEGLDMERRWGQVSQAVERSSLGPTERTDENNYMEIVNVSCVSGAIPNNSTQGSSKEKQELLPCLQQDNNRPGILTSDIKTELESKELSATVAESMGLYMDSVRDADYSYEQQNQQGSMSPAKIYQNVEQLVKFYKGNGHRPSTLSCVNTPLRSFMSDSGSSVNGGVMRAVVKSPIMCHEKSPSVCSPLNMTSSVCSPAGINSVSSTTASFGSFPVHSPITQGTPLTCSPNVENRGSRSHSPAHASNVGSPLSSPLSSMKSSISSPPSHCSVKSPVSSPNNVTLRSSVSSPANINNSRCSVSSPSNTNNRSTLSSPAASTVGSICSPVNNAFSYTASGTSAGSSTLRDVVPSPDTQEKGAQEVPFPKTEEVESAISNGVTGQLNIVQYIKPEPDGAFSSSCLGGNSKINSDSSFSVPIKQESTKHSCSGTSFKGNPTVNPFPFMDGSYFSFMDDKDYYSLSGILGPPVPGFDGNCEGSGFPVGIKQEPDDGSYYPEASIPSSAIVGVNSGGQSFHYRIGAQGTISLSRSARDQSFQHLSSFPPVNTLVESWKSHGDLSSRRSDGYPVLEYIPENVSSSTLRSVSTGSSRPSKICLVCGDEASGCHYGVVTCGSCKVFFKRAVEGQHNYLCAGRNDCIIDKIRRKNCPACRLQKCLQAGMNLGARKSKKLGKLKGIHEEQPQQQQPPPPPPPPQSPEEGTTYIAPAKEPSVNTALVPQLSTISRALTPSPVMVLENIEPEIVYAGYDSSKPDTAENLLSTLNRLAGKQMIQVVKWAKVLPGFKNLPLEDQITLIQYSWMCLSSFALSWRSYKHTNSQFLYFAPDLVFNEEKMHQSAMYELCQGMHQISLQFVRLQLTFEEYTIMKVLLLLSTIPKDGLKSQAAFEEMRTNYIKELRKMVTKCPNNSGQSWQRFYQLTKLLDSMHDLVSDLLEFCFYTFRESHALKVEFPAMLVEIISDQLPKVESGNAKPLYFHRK
Source text: Table printed on a drawing sheet, FIG. 3D
Head of the field: IC50 (µM)
The patent's description of the figure: FIG. 3.
First copying reader's note: The head of the sequence column numbers the residue positions relative to the first leucine of the LXXLL motif; the last two rows are protein fragments given as residue ranges.

MR LBD = molecular target: T3, MR LBD (Homo sapiens, UniProt P08235, C808S); assay: Peptide profiling: unlabeled peptides compete off SRC2-3 binding to MR (FIG. 1C); details: unlabeled peptide 500 nM; 20 nM corticosterone or aldosterone
T3 construct: made in house; host or cells: E. coli BL21DE3 (pET24a)
T3 sequence (P08235 727-984 C808S): T1 sequence (P08235 727-984 C808S)
Description: The cofactors that contain a pair of LXXLL motifs with strong binding affinity to MR are boxed. All peptides have identical length of 15 residues except for SRC1-4 motif, which terminates at position +7 relative to the first leucines (L+1) in the LXXLL motif, and for the AR peptides and the corepressor motifs, which are longer than the coactivator motifs. Sequences of peptides are listed in experimental procedures.
as §1
The unlabeled peptides that were used in FIG. 1C are listed below in Table 2:
MR is the least studied member among the classical steroid hormone receptors and its physiological coactivators have not been clearly documented. To gain insights into which coactivator is physiologically relevant to MR, the inventors performed peptide profiling experiments using a panel of 38 unlabeled peptides to compete off the binding of the third LXXLL motif of SRC2 (also known as TIF2/GRIP1) to MR. […] The strong binding of the SRC1-4 motif and the PGC1 motifs is consistent with previous studies of the binding of LXXLL motifs to oxosteroid receptors (Hultman et al., 2005; Wu et al., 2004).

interaction with purified MR LBD [2]: strongly
Compound: AEEPSLLKKLLLAPA [PGC1]

interaction with purified MR LBD [2]: weakly
Compound: GHGEDFSKVSQNPILTSLLQITGN (listed as Homo sapiens) [TRAP220]

interaction with purified MR LBD [2]: failed to interact
Compound: GHSFADPASNLGLEDIIRKALMGSF [NCOR-2]

Further lines, the compound ahead of its results:

Compound: C[C@]12CCC(=O)C=C1CC[C@@H]1[C@@H]2C(=O)C[C@@]2(C)[C@H]1CC[C@]2(O)C(=O)CO [cortisone]
activation of S810-mutated MR [1]: activated efficiently

Compound: CC(=O)[C@H]1CC[C@H]2[C@@H]3CCC4=CC(=O)CC[C@]4(C)[C@H]3CC[C@]12C [progesterone]
activation of S810-mutated MR [1]: activated efficiently; also recorded: allows the receptor to respond

Compound: KENNALLRYLLDRDD [SRC3-3]
pIC50 (MR): 5.85

Compound: PRQGSILYSLLTSSK (listed as Homo sapiens) [DAX1-3, 18]
inhibition of SRC2-3 binding to MR (MR LBD): most potent competitors

Compound: QEKHRILHKLLQNGN [SRC3-2]
pIC50 (MR): 5.34

Compound: SGNLVPDAASKHKQLSELLRGGSG (listed as Homo sapiens) [CBP]
interaction with purified MR LBD [2]: weakly

Compound: WAEFSILRELLAQDV (listed as Homo sapiens) [PGC1β-2, 35]
inhibition of SRC2-3 binding to MR (MR LBD): most potent competitors
